Earlier results on one substance are cited in publication PMC8573850.

As a reminder, the Kd is the free concentration of one partner at which half of the binding sites on the other are occupied at equilibrium, for simple one-to-one binding.

For the data set, the target named is Neuropilin-1 (Homo sapiens) (UniProt O14786).

“And” between values parts separate entries of the source, which are not always exact repeats. Equal entries are not always repeated.

Chain of UniProt O14786 (O14786 22-856): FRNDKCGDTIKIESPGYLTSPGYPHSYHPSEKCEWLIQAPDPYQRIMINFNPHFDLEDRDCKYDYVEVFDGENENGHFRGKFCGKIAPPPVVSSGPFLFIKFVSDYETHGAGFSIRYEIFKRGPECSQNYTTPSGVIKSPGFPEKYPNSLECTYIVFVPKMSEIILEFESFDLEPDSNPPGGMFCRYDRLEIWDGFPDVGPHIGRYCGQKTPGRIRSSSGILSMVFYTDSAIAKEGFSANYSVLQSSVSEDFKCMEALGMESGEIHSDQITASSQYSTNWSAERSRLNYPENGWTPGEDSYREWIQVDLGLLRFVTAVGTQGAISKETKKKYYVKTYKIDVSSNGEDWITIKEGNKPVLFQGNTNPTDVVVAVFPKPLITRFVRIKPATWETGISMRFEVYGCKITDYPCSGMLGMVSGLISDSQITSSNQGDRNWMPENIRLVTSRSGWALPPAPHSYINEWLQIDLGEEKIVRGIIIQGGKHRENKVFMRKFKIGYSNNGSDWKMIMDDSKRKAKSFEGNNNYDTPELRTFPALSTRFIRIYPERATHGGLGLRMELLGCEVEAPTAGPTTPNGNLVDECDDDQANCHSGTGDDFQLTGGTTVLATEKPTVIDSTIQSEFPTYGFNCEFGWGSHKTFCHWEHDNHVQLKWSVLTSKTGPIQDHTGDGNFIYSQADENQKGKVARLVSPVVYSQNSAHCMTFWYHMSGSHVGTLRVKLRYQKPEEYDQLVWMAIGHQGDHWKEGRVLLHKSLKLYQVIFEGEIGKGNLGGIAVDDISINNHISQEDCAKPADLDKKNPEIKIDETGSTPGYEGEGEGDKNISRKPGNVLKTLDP

Consider “Spike protein CendR peptide CendR (from UniProt P0DTC2)”, for which the Kd is 13 µM and 20 µM.
